Test results as given in the domain aggregation screens of Martell et al. (2025).

Assay: soluble fraction after stress (log2 fold change); higher = more stays soluble; pooled small domains, quantitative proteomics
Conditions: stress: 50 degC
Summary of the method: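 Each library was heated to 50°C as a stress step. The libraries, made up of small protein domains, were pooled and analysed at high throughput by quantitative proteomics. The reported value is the base-two logarithm of the fold change in each protein's soluble amount after stress, taken as a measure of aggregation propensity. The higher the value, the more protein stays in solution.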

| Sequence | soluble fraction (log2) |
| --- | --- |
| HMKEYRKEGHLYFVTEDRNNEIYLWDFTDKPKHEFKEIITSVELQKVAKEGAMLQYKNGKYELYS | -0.171 |
| HMERAFRILELFDLKQDELPITEIAERTGLPISTAHRLLSTLETLGYIAQNPDNGRYRLGLQTFVLGSR | -0.987 |
| HMENLTLVIGNKLKNIRNSRNLSLDDVAELTGVSKAMLGQIERGKSNPTVSTLWKISTGLRVSFSSFIDE | -2.2 |
| HMFHGEGVQANNIQAYIVLKMAAVNGAEDALDTADEVSEKMSREDLETATQVLGQIFRKYLMELQSA | -1.2 |
| HMKIEETLGKTAQVYIPIPQYLSGIGKVTLSVRGSLRELDAMTEEEKIPSNTIVRIVKVQDQVLFVKRA | -0.74 |
| HMATHWHITPNPNNGKFLISGLMQDDSFHLMDASGQWLRQLRTVNQELDLDLQPGVYFLKDNSGSVMKFVV | -0.98 |
| HMVPADVQHLRDIVDTMTEKQQLVYKLHVLEGYTFTEIAKLMGTSIPNVKKHYDKAILFIKNNF | -0.909 |
| HMKEETEMVTIPDVTGKPLTEAANLLREAKLDYLAESTGTSVTKQMPLPGAEVMVNTTVLLYTG | 0.156 |
| HMEIDDPWLILGINAGSSIEIAQKAWKDLASQNHPDKLIANGVPKELLGMANEKLAIINGAYDKILKAHKI | -0.262 |
| HMTYIQSNLKFLRNKMNISQEELAKRLFVTHQTVSNHENGKSQPNFEMIEKYASFFNVPFEDLIHKDLSL | -0.0206 |
| HMFNISEKLKKYRNALGLTQTEVAEKIEITKPTYASYEKGKDISIGTLKKLADLFEVSFESFFSE | -0.168 |
| HMDQDIILHKVQPGDTLSKILLHYHSHQDRNKLQGLIAESMTANPFIKNPDLIYPGQLIQVPVPA | 0.05 |
| HMRLPLYLALAQTLRQEIDAKQYKIGAHLPPEDQLVVKYGVSRHTVRQALQELKNEGLITSKAGIGTIVSS | -0.666 |
| HMKNFAPVWGEEGAEFGKEVDTGFRLRIVEKEKDVNDLFEVIQKHTIQSQWKPGSTGTESIYKRI | 0.37 |
| HMSQAVTMLKAGRLLANSKGTGAAVRDLEPGMLLYPTGQKDGTMWEVEDEMGNKGWVNSTSMQLA | 0.188 |
| HMVLALRGIVQGGAEPLVILSDGRTSQSLAVGERFLAYEVVEIGRTGVRLRGPEGEIWLAMASF | -0.322 |
| HMGIIVDMSKIKQMLQLSEAGHSNRKIALELGINKETVNNYMQLIRNGRLDIRQLLKMDDPELERRFHA | -0.329 |
| HMKGVTVDGDNITVDGEKQTLISVNKNLDGDVVSYTYRTADGKLRTSRNVEVAQEINKQQLLKSIDAQ | 0.0821 |
| HMDTAGSVAIVSKSVIENGFGEIKYKGTYFKAQSDVYIPKDQMVKVIGKGDEQGSFLIVEKLN | -0.0425 |
| HMKLSALRDKIKEHLLRQIQNGELQVGKTINLAALSRVTGISVTPIREALTQLEQAQVIQAVPNRGFVVA | 0.00526 |
| HMHINLEGLKKIDFRKKIGFLFGSEASGLSNKEVSYANYTLQIPTNINFKSLNLSHSLIIIAQFISSLLNS | -0.333 |
| HMTAQASDIEKVLQVIETLGFRGHTLPGENRTAIGVTGNRGSIDPAHFENLPGVADAIRVTKPY | 0.0639 |
| HMEQEVLDLLFDAIRSLPEKYRRLFDMSFEQGLKNAEIAALLHVSESAVKKQKASMIQQLRDDLLRKTGKD | -0.693 |
| HMESDAIAAAIAALPARYREVLLLRYDNGFSYSEISKALDMTEAAVRKTVQRAKEALQRTLQIQEEDT | -0.471 |
| HMAKVDIPHEMVDQRIDEIVEEIKMNLESQNMSLDDYLKRMNQTEAQLRANYEATAAEQVRQGLV | 0.314 |
| HMVVPRSFKYEVLAHGGWAGNAQRYQTKEEALHAGLALSRRWTAVEDYRAVPSDDLPNQPAL | -0.259 |
| HMTKIAFPQMLNKYRLQKNLTMEQLAEEVGKTKSTISKWEAGTRSPKIYEIEEIAKYFGVEPQTMMF | -0.453 |
| HMKEAITVIGGKNNITFDASAQAEIGIYSMDGVQIQKKTISDNERIDLPAGMYVVTVKTGQANVSKVVVV | 0.00681 |

| Sequence | soluble fraction (log2) |
| --- | --- |
| HMSSKSDQLYLQLRRRISAMKDGEPFPTVRQLMTEYQVSQSTVTPAINQLKEKGLIEAYVGRGSFVSKK | -0.615 |
| HMGEKFTFGQIAKAKAYAKTYANDMTSAVKNIEAIATGLSKHPEVADTLKKANENQELNRITKLAG | 0.149 |
| HMDPEEETLKNMQRMLQDSGPLKKTEFSLLAKSLGIAEKKARKLIDRGRGRFWTVESGEQKNTQLVTPIQ | -0.0247 |
| HMTMVVIMNADATQADIEGVISAIEEKGLEAKVMEGAHQKIVGVIGDKTKLAATPLDAMHGVETTVAIS | -0.0878 |
| HMKILKQLEAIIEKEGLNESAKQFYLREISELDKEKQQEIINLVDKMEQAGFKNNLASAFSEVTEDIPQF | -0.0195 |
| HMRVPQWLVDKIAAAGIDTHRSGPALKALAAKAGTPEQLDQAIARAKALRRRTGSTQSLNVGLLGSILEGT | -0.106 |
| HMQDFEEILKNAKIEDFKHTQTGEDLKVLKIEDKIEDFKGFNAYLVKNQIAYYSKFARGFVVKNIEKLQGV | 0.0429 |
| HMLGDIYISIPRAKLQAEEYGHSFKRELAFLAVHGFYHLLGYDHQTKEEEEVMFGKQEEVLAEFDIKR | -0.218 |
| HMSQYVPDPVLNAALVGYLDFRKQAGKPMTDYSIRLLLVDLAKLSGNPQEQAAILDQSTKNNWIGVYALG | -2.87 |
| HMNILNYIIENENQEVRVDKFLSDTIEDMSRSSVASIIEDGGLLVNDKLQNKKYKLKIGDKVQFTVPDPV | 0.113 |
| HMPLNRFLNLPHEDKERVLLIAKKQFSTHGYDAMSLNLLLKELDISKGQFYYWFEDKADLFFTVL | 0.0032 |
| HMSMNGNMIHATVIWKGRYFLVKMFFPQLTKPKRAEVQAQIEKAYPGSRVASYHITDYKPGEQFLHV | -1.51 |
| HMKDANIQIGKRLREARLNMNLEKSEIADVLGVTVEHYRKLEAGVMGISVDKVLTLYHKYGIDPTYLITG | -1.19 |
| HMESTLNYSQFLSLVNEDRVAEVVIQGKELYVTDVNRSRFKVYAPPDPELIGLLRQKRVIISAKP | -0.0196 |
| HMTGDNQTIGGGGFHHVAIRAHDFDASVKFYGETLGFREKIAWGEGDKRAIMMDTGDGNYIEIF | 0.197 |
| HMANKLTSTNLAKQHKMGLSEMYAELMNSGYLIEKDGKYELTPLGISIGGESKPNRYKKGEFYFLWPSDIS | -0.29 |
| HMQASTGNVNTETLNLRKEASTSADILKLLSQGDEVEIVSESNGWYKVKYKDTEGFVSKEYITVN | 0.245 |
| HMAEEFESMTEARRLELARLVDSRGFVRVTDAAEELGVSDVTIRGDLSELERRGLLTRVHGGAMPVT | 0.0215 |
| HMKQVEVESVIGKSEEAANSILTKAGLKVNIGYKEDSSKPTDTVLSQDPAPGEKVDEGTTVTIVVNNYKKP | 0.0614 |
| HMTRPLVILEDVKFPSYNEIVSLTLPDGTRRGGQVLEVSGNKAIVQVFEGTSGIDVKDTHIELTKSS | 0.0245 |
| HMSLPAYIKISEVIARRINAGQILAGDRLPNERTMAVEFGVAVGTLRKALYHLQVRGLVTRKHGSGNYINK | -0.177 |
| HMHRGEIVDGVIASVNPRSILIDIGGKSDALVHPRELERMSDEDLRSLKPGQDVSVYVIETDSDGTMLVSL | -0.0402 |
| HMPDPLYLINGKIVNKSDFNNIDPRSIQSIEVLKANKALEAFGNDGKNGVIKITLKSSNDQM | 0.0749 |
| HMHTGLAELTDRERDVLRLIATGMTNAAIGSALAYSPSTIRADTVSIYRKLEVRGRAEAAAVAVAAGLTQP | -1.26 |
| HMKAPLTFVIEGKEYEAFDQYKTGAELKQLAGIPLDTELFLSISKPYQDELIENEKQVNLARPETEYFFVK | -0.0489 |
| HMTVLPTENDAKALVGLNEDEAVKIIEGNGWTYRIGSRDGEQFMLTEDYSTSRLTLGIEKSIVVTATI | -0.151 |
| HMDKNLQYADTPKGKLREYIKNLPNGSTVNRQKLAEEFGIKKQSMGTVTEVFQEFPDKNFKFVNP | 0.119 |
